Our source for the Km and kcat values is article PMC8967036, “Engineering of phenylalanine dehydrogenase from Thermoactinomyces intermedius for the production of a novel homoglutamate” (PLoS ONE, 2022).

Substrate in data set [1]: O=C(O)C(=O)Cc1ccccc1
The data set can be described thus: purified protein. Format: biochemical, Thermoactinomyces intermedius. Particulars: reductive amination, Tris-NH4Cl pH 8.0, 1 mM NADH, 37°C (general assay).

Substrate in data set [2]: O=C(O)CCCC(=O)C(=O)O
The experiment in a line: purified protein. Type of data set: biochemical, Thermoactinomyces intermedius. Particulars: reductive amination, Tris-NH4Cl pH 8.0, 1 mM NADH, 37°C (general assay).

Setting [3] is: mutant called only 'mutated TiPDH' at the number, A135R by b37-b38 (G114R and double mutant inactive).

Positions count from the first letter of the chain named. Names and notes keep the numbering of the source.

B1: TiPDH (phenylalanine dehydrogenase) (Thermoactinomyces intermedius) (protein)
chain: MRDVFEMMDRYGHEQVIFCRHPQTGLKAIIALHNTTAGPALGGCRMIPYASTDEALEDVLRLSKGMTYKCSLADVDFGGGKMVIIGDPKKDKSPELFRVIGRFVGGLNGRFYTGTDMGTNPEDFVHAARESKSFAGLPKSYGGKGDTSIPTALGVFHGMRATARFLWGTDQLKGRVVAIQGVGKVGERLLQLLVEVGAYCKIADIDSVRCEQLKEKYGDKVQLVDVNRIHKESCDIFSPCAKGGVVNDDTIDEFRCLAIVGSANNQLVEDRHGALLQKRSICYAPDYLVNAGGLIQVADELEGFHEERVLAKTEAIYDMVLDIFHRAKNENITTCEAADRIVMERLKKLTDIRRILLEDPRNSARR
notes: His-tagged, pET-Duet1, E. coli BL21(DE3), Ni-NTA purified
In the case of B1, the Michaelis constant (Km) in the data set “purified protein [1]” (natural substrate) was 0.66 µM; in “purified protein [2]”, 1.771 µM. Moreover, the kcat in the data set “purified protein [1]” (natural substrate) stood at 0.3715 s⁻¹; in the data set “purified protein [2]” it was 0.00513 s⁻¹.

B2: TiPDH (phenylalanine dehydrogenase) (Thermoactinomyces intermedius; A135R) (protein)
chain: B1 chain with A135R
notes: as for B1
On to B2, for which, in “purified protein [1]”, the Michaelis constant (Km) stood at 1.2 µM and the kcat came to 0.4307 s⁻¹. For the same protein, in the data set “purified protein [2]” (setting [3]), the Km was determined as 7.518 µM and the kcat is 0.0228 s⁻¹.

What is called Km is the concentration of substrate that gives half-maximal velocity. A word on the kcat: it is the number of substrate molecules converted per active site and unit of time at saturation.
